Among the data in publication PMC3305377, “Insights into the structure and activity of prototype foamy virus RNase H” are Kd values, retold here.

The data set deals with PFV PR-RT (protease-reverse transcriptase) (prototype foamy virus, UniProt P14350 1-751). The data set is described as follows: fluorescence anisotropy; 10 mM EDTA, no Mg2+; 5 nM substrate; 50 mM Tris/HCl pH 8.0, 80 mM KCl, 10 mM EDTA, 0.5 mM DTT, 25 C. Particulars: protein: recombinant; label: 5'-DY647 on RNA; 24 bp hybrid; RNA template overhangs 5' 5 nt and 3' 11 nt.

B1: 24/40-mer DNA/RNA primer/template (DNA:RNA)
RNA: CUAAUUCCGCUUUCCCCUCUCCUGGUGAUCCUUUCCAUCC
DNA: ATCACCAGGAGAGGGGAAAGCGGA
In the case of B1, the Kd came to 9.1 ± 1.7 nM.
